Molecular target: T1, CRF2-4/IL-22RA heterodimeric receptor on BaF3 cells (BaF3/CRF2-4/IL-22RA cells) (human, UniProt Q08334 20-325, limits assumed)
T1 sequence 1: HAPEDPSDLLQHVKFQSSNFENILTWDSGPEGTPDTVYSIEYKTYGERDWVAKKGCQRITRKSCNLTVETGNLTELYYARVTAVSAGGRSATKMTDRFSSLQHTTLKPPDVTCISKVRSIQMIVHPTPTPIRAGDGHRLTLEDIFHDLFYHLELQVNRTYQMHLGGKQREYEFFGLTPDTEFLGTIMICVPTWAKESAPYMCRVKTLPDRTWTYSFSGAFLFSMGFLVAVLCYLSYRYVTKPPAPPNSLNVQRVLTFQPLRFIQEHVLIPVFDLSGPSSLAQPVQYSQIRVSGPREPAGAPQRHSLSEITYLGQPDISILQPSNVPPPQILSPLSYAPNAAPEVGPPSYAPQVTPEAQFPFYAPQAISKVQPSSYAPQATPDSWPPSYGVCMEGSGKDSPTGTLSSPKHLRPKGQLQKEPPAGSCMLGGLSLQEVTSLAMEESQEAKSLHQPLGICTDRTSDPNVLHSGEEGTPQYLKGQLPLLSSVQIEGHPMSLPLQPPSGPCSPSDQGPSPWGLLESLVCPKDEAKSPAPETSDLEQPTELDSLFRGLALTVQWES
T1 sequence 2: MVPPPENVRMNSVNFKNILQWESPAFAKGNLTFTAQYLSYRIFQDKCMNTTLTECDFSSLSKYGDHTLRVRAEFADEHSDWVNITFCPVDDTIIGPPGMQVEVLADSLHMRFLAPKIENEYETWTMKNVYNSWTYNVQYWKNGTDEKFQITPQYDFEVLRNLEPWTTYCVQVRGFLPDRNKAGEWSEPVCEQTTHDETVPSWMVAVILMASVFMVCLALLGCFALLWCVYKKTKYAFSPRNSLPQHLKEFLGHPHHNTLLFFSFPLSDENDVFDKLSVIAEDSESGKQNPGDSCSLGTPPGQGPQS
Assay: cell-based or functional assay

B1: IL-22-CEE (ligand)
chain: LLLALLVQGGAAAPISSHCRLDKSNFQQPYITNRTFMLAKEASLADNNTDVRLIGEKLFHGVSMSERCYLMKQVLNFTLEEVLFPQSDRFQPYMQEVVPFLARLSNRLSTCHIEGDDLHIQRNVQKLKDTVKKLGESGEIKAIGELEYMPME
- proliferation of BaF3/CRF2-4/IL-22RA cells (Alamar Blue), IL-22-CEE at 0.06 ng/ml: ~2 fold over background

From patent US20060134756A1 (ZymoGenetics, published 2006)
